Results as given in publication PMC10933270, “The eukaryotic-like characteristics of small GTPase, roadblock and TRAPPC3 proteins from Asgard archaea” (Communications Biology, 2024).

Experiments:
[1] = molecular target: T1, Thor-Rab (Candidatus Thorarchaeota archaeon SMTZ1-45, UniProt A0A135VL07); assay: X-ray crystallography, co-crystal without Mg2+ ([…] Å) and soak with Mg2+ ([…] Å); details: co-crystal 10 mM GTPγS, one copy mixed GDP/GTPγS, second copy full GTPγS; soak of GDP crystal with GTPγS and MgCl2; pH 5.5; nucleotide-binding site
T1 construct: codon-optimized gene in pSY5, N-terminal His8 tag removed by HRV 3C; E. coli expression; naturally lacks the C-terminal cysteine extension; two molecules in the asymmetric unit
T1 sequence (A0A135VL07 1-182): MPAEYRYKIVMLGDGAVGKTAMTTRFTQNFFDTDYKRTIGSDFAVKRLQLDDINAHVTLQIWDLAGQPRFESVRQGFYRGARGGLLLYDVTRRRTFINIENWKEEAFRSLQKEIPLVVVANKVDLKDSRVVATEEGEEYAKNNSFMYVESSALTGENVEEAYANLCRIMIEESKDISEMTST

[2] = molecular target: Odin-RBLC7, truncated roadblock (RBLC7) protein from Odin LCB_4 (Odinarchaeota LCB_4); assay: crystal structure; Odin-RBLC7 crystals in 200 mM MgSO4, 20% PEG 4000, 10% glycerol, 20 °C; molecular replacement with dynein DLRB1 (PDB 3L7H)
[3] = molecular target: T2, Rab11B (Homo sapiens, UniProt Q15907); assay: phosphate release assay (EnzChek), GTP hydrolysis; format: biochemical; details: 1 mM GTP, 2 mM MgCl2, 20 mM HEPES pH 7.5, 150 mM NaCl, 25 °C, 2 h; no GAP or GEF; heat-denatured control
T2 construct: codon-optimized gene in pSY5, N-terminal His8 tag with HRV 3C site (tag removed); E. coli expression
T2 sequence (Q15907 1-218): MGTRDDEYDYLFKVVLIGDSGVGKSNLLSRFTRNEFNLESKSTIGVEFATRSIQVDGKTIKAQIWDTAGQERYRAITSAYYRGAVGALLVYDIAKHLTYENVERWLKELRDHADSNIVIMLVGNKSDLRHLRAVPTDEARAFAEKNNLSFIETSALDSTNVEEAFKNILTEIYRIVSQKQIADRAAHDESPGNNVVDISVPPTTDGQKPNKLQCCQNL

[4] = molecular target: T1, Thor-Rab; assay: phosphate release assay (EnzChek), GTP hydrolysis; format: biochemical; details: 1 mM GTP, 2 mM MgCl2, 20 mM HEPES pH 7.5, 150 mM NaCl, 25 °C, 2 h; no GAP or GEF; heat-denatured control
[5] = molecular target: MKD1-RB, roadblock (RB) protein from Loki MKD1 (Candidatus Prometheoarchaeum syntrophicum strain MK-D1); assay: crystal structure; MKD1-RB crystals in 100 mM MES, pH 6.0, 250 mM zinc acetate dihydrate, 6% wt/vol PEG 3000, 20 °C; solved using the Thor-RB structure
[6] = molecular target: SMTZ1-45 Thor-TRAPPC3, TRAPPC3-like protein from Thor SMTZ1-45 (Candidatus Thorarchaeota archaeon SMTZ1-45); assay: crystal structure; Thor-TRAPPC3 crystals in 100 mM HEPES, pH 7.5, 250 mM magnesium formate-dihydrate, 18% wt/vol PEG3350, 20 °C; molecular replacement with the AB25 Thor-TRAPPC3 model (7YH2)
[7] = molecular target: Thor-RB, predicted roadblock (RB) protein from Thor SMTZ1-45 (Candidatus Thorarchaeota archaeon SMTZ1-45); assay: crystal structure; Thor-RB crystals in 100 mM sodium acetate trihydrate, pH 5.0, 200 mM LiCl, 16% wt/vol PEG 6000, 20 °C; molecular replacement with MglB (PDB 3T1S)

Nc1nc2c(ncn2[C@@H]2O[C@H](COP(=O)(O)OP(=O)(O)OP(O)(O)=S)[C@@H](O)[C@H]2O)c(=O)[nH]1 [GTP-γS]
X-ray crystallography, co-crystal without Mg2+ (1.75 Å) and soak with Mg2+ (1.95) [1]: full occupancy for GTP-γS in the second copy

Odin-RBLC7, truncated roadblock (RBLC7) protein from Odin LCB_4 (natural protein)
stoichiometry N [2]: 2

Nc1nc2c(ncn2[C@@H]2O[C@H](COP(=O)(O)OP(=O)(O)OP(=O)(O)O)[C@@H](O)[C@H]2O)c(=O)[nH]1 [GTP]
phosphate release assay (EnzChek), GTP hydrolysis [3]: The GTPase activity of human Rab11B and SMTZ1-45 Thor-Rab were measured
phosphate release assay (EnzChek), GTP hydrolysis [4]: SMTZ1-45 Thor-Rab generated similar levels of phosphate in comparison to human Rab11B

MKD1-RB, roadblock (RB) protein from Loki MKD1 (natural protein)
stoichiometry N [5]: 2

SMTZ1-45 Thor-TRAPPC3, TRAPPC3-like protein from Thor SMTZ1-45 (natural protein)
stoichiometry N [6]: 2

Thor-RB, predicted roadblock (RB) protein from Thor SMTZ1-45 (natural protein)
stoichiometry N [7]: 2
